Data set [1] has as its system HuPrime® HCC xenograft model LI1097. Nature of the data set: Efficacy study in HuPrime HCC xenograft model LI1097 (tumor volume, TGI, T/C, T-C). The note with it: for Tumor Volume: mean ± SEM; for anti-tumor activity against HCC xenograft (in words): LI1097, compared with sorafenib. The data set is classed as in vivo, BALB/c nude mice. From the text:
To evaluate preclinically the in vivo efficacy of GamaMabss' anti-AMHR2 monoclonal antibody, named GM102 in the treatment of Huprime® HCC xenograft model LI1097 in Balb/C nude mice. The model LI1097 was selected after a screening for AMHR2 transcription processed by CrownBio, using RNAseq (transcriptome sequencing). Further, AMHR2 membranous protein expression of this model was confirmed by Institut Curie, France, using IHC.
• Strain: BALB/c Nude • Age: 7-8 weeks (Treatment starting) • Gender: female • Total #: 32 mice plus spare
• HuPrime® Liver cancer model L11097 derived from a HCC patient was selected for this efficacy study. This model reached 1000 mm^3 in 20-25 days post inoculation.
• Product identification: GamaMabs's Ab (3C23K) • Manufacturer: GamaMabs Pharma • Lot number: R18H2-LP01 • Batch: 04GAM140513API • Quantity needed: 255 mg based on animal BW of 25 g with 50% spare • Package and storage condition: [30 ml/tube], 30 ml, [2-8° C.] • Concentration: 10.1 g/L • Product identification: Sorafenib • Manufacturer: Melonepharma • Lot number: D1111A • Quantity needed: 300 mg based on animal BW of 25 g with 50% spare • Package and storage condition: 400 mg, [RT]
Tumor fragments from stock mice inoculated with selected primary human cancer tissues were harvested and used for inoculation into BALB/c nude mice. Each mouse was inoculated subcutaneously at the right flank with primary human HCC model LI1097 fragment (R12P4, 2-4 mm in diameter) for tumor development on Jun. 9, 2015. The parent mouse number was #80150. #80151 and #80153. The mice were grouped when the average tumor size reached about 145 mm^3 on Jun. 24, 2015. Mice were allocated randomly into 4 experimental groups according to their tumor sizes. Each group consisted of 8 mice, 4 mice per cage. The day was denoted as day 0. The test articles were administered to the tumor-bearing mice from day 0 (Jun. 24, 2015) through day 27 (Jul. 21, 2015) according to pre-determined regimen shown in Section 1.1 Experimental Design.
Tumor size were measured twice weekly in two dimensions using a caliper, and the volume is expressed in mm^3 using the formula: TV=0.5 a×b^2, where a and b are the long and short diameters of the tumor, respectively. The tumor size is then used for calculations of TGI, T/C, and T-C values according to the description in the Table 2 in Abbreviations.
The study was ended after 28 days treatment and mice were sacrificed.
Summary statistics, including mean and the standard error of the mean (SEM), are provided for the tumor volume of each group at each time point. Statistical analysis of difference in tumor volume among the groups was evaluated using a one-way ANOVA followed by multiple comparisons using Games-Howell. All data were analyzed using SPSS 16.0. P<0.05 was considered to be statistically significant.

Data set [2] is described as follows: Body weight and tolerability in LI1097 tumor-bearing mice. The format is in vivo. The conditions noted are these: for body weight loss observed in treated mice: mean; for tolerability / toxic events (in words): LI1097 tumor-bearing mice, antibody 20 and 50 mg/kg i.v., sorafenib 50 mg/kg p.o. As to the method:
When individual mouse has a body weight loss ≥20%, the mouse will be given dosing holiday(s) until its body weight recovers to the baseline.
All the procedures related to animal handling, care, and the treatment in this study were performed according to guidelines approved by the Institutional Animal Care and Use Committee (IACUC) of CrownBio following the guidance of the Association for Assessment and Accreditation of Laboratory Animal Care (AAALAC). At the time of routine monitoring, the animals were checked for any effects of tumor growth on normal behavior such as mobility, food and water consumption (by looking only), body weight gain/loss, eye/hair matting and any other abnormal effect. Death and observed clinical signs were recorded on the basis of the numbers of animals within each subset.
Under following conditions, the in-life experiment of individual animal or whole groups will be terminated, by humane euthanization, prior to death, or before reaching a comatose state. • In a continuing deteriorating condition with severe clinical signs of severe distress and/or pain, inaccessible to adequate food or water; • Significant body mass (emaciated) (>20%); • Individual mouse with tumor size exceeding 3000 mm^3 or MTV>2000 mm^3.

Data set [3] has as its target T1, AMHRII (form used for the Kd not stated) (human, UniProt Q16671 18-149, limits assumed).
T1 construct: Neither the construct nor the assay behind the Kd is described

In data set [4] the test system is Champions TumorGraft® model CTG-0401 (human colorectal cancer). In words: Efficacy study in model CTG-0401 of human colorectal cancer. The data set is classed as in vivo, Athymic Nude-Foxn1nu mice. The note with it: 20 mg/kg IP BIWx4; comparator Irinotecan 100 mg/kg IP Q7Dx3; listed as GM102. As to the method: Stock mice (Athymic Nude-Foxn1^nu from Envigo) were implanted with tumor fragments from Champions TumorGraft® model CTG-0401. After the tumors reached 1000-1500 mm^3, they were harvested and the tumor fragments were implanted SC in the left flank of the female study mice. Each animal was implanted with a specific passage lot: passage 6 for CTG-0401. Tumor growth was monitored twice a week using digital calipers and the tumor volume (TV) was calculated using the formula (0.52×[length×width^2]). After the tumor volume reached 175±7 mm^3, mice were selected based on their tumor size and were randomly allocated into 4 groups of 12 animals per group (Day 0). After the initiation of dosing on Day 0, animals were weighed twice per week using a digital scale and TV was measured twice per week and also on the final day of study. The study was terminated when the mean tumor volume in the vehicle control group reached 1500 mm^3 or up to Day 60, whichever occurred first.

Where [5] appears, read: 50 mg/kg, QD × 4 weeks, p.o., day 13.
The mark [6] stands for this setting: 20 mg/kg, BIW × 4 weeks, i.v., day 13.
Setting [7] is: 50 mg/kg, BIW × 4 weeks, i.v., day 13.

Entries after “also recorded” stand apart in the source; their conditions may differ.

T1 sequence (Q16671 18-149 limits assumed): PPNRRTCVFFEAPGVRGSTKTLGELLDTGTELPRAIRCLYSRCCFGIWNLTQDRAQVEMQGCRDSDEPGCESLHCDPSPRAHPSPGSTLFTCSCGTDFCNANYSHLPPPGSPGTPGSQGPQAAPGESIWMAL

As to `CNC(=O)c1cc(Oc2ccc(NC(=O)Nc3ccc(Cl)c(C(F)(F)F)c3)cc2)ccn1` [Sorafenib, reference compound], the “T-C (days) at 1000 mm^3” value in data set [1] (50 mg/kg, QD × 4 weeks, p.o.) turned out to be 8 days. Further, the “Tumor Volume” value in data set [1] (50 mg/kg, QD × 4 weeks, p.o., day 0) amounted to 145.18 ± 16.97 mm^3; in data set [1] (50 mg/kg, QD × 4 weeks, p.o., day 2) it was 321.35 ± 45.66 mm^3; in data set [1] (50 mg/kg, QD × 4 weeks, p.o., day 6) it was 493.84 ± 65.13 mm^3; in data set [1] (50 mg/kg, QD × 4 weeks, p.o., day 9), 695.20 ± 66.81 mm^3; in data set [1] (setting [5]), 891.50 ± 103.33 mm^3; in data set [1] (50 mg/kg, QD × 4 weeks, p.o., day 16), 1135.40 ± 133.62 mm^3. For the same molecule, the “Tumor Volume” value is given as 1478.84 ± 189.62 mm^3 in data set [1] (50 mg/kg, QD × 4 weeks, p.o., day 20); 1627.4 ± 202.91 mm^3 in data set [1] (50 mg/kg, QD × 4 weeks, p.o., day 23); 1829.66 ± 256.4 mm^3 in data set [1] (50 mg/kg, QD × 4 weeks, p.o., day 27). In data set [1] (setting [5]), the “T/C (%)” value is 35.1%. Moreover, in data set [1] (setting [5]), the “TGI (%)” value is on record as 64.9%. In addition, the “body weight change at study termination” value in data set [2] (50 mg/kg, QD × 4 weeks, p.o.) is −7.63%. For the same molecule, the “mean maximum body weight loss” value in data set [2] (50 mg/kg, QD × 4 weeks, p.o., day 27 of treatment) is 7.63%. In addition, the “body weight loss observed in treated mice” value in data set [2] (50 mg/kg, QD × 4 weeks, p.o.) is 7%; in data set [2] (50 mg/kg, QD × 4 weeks, p.o., listed as sorafenib), “up to 7%”.

B1: 3C23K anti-AMHRII monoclonal antibody (antibody, human IgG1, kappa, V domains shown)
VH: QVRLVQSGAEVKKPGASVKVSCKASGYTFTSYHIHWVRQAPGQRLEWMGWIYPGDDSTKYSQKFQGRVTITRDTSASTAYMELSSLRSEDTAVYYCTRGDRFAYWGQGTLVTVSS
VL: DIQMTQSPSTLSASVGDRVTITCRASSSVRYIAWYQQKPGKAPKLLTYPTSSLKSGVPSRFSGSGSGTEFTLTISSLQPDDFATYYCLQWSSYPWTFGGGTKVEIKR
notes: Humanized antibody; also called GM102; GamaMabs's Ab
B1: the Kd in data set [3] was found to be 0.0553 nM.

B2: 3C23K: humanized anti-AMHRII monoclonal antibody; VH SEQ ID NO 19, VL SEQ ID NO 36 (antibody, V domains shown)
VH: QVRLVQSGAEVKKPGASVKVSCKASGYTFTSYHIHWVRQAPGQRLEWMGWIYPGDDSTKYSQKFQGRVTITRDTSASTAYMELSSLRSEDTAVYYCTRGDRFAYWGQGTLVTVSS
VL: DIQMTQSPSTLSASVGDRVTITCRASSSVRYIAWYQQKPGKAPKLLTYPTSSLKSGVPSRFSGSGSGTEFTLTISSLQPDDFATYYCLQWSSYPWTFGGGTKVEIK
modifications: Synthetic 3C23K/3C23; Synthetic 3C23K
Take B2: the “T-C (days) at 1000 mm^3” value is given as 3 days in data set [1] (20 mg/kg, BIW × 4 weeks, i.v.) and 5 days in data set [1] (50 mg/kg, BIW × 4 weeks, i.v.). Further, the “Tumor Volume” value in data set [1] (20 mg/kg, BIW × 4 weeks, i.v., day 0) was determined as 145.15 ± 16.79 mm^3; in data set [1] (20 mg/kg, BIW × 4 weeks, i.v., day 2), 358.57 ± 51.86 mm^3; in data set [1] (20 mg/kg, BIW × 4 weeks, i.v., day 6) it was 665.09 ± 85.00 mm^3; in data set [1] (20 mg/kg, BIW × 4 weeks, i.v., day 9), 952.12 ± 171.45 mm^3; in data set [1] (setting [6]) it was 1179.90 ± 232.26 mm^3; in data set [1] (20 mg/kg, BIW × 4 weeks, i.v., day 16) it was 1479.51 ± 292.49 mm^3. The “Tumor Volume” value in data set [1] (20 mg/kg, BIW × 4 weeks, i.v., day 20) is listed as 1973.13 ± 372.07 mm^3; in data set [1] (20 mg/kg, BIW × 4 weeks, i.v., day 23) it was 1814.59 ± 231.17 mm^3; in data set [1] (20 mg/kg, BIW × 4 weeks, i.v., day 27), 2081.67 ± 213.28 mm^3; in data set [1] (50 mg/kg, BIW × 4 weeks, i.v., day 0), 145.24 ± 16.38 mm^3; in data set [1] (50 mg/kg, BIW × 4 weeks, i.v., day 2) it was 297.78 ± 46.32 mm^3; in data set [1] (50 mg/kg, BIW × 4 weeks, i.v., day 6) it was 532.71 ± 104.17 mm^3. Further, the “Tumor Volume” value turned out to be 751.81 ± 176.15 mm^3 in data set [1] (50 mg/kg, BIW × 4 weeks, i.v., day 9); 1117.12 ± 302.85 mm^3 in data set [1] (setting [7]); 1476.74 ± 407.93 mm^3 in data set [1] (50 mg/kg, BIW × 4 weeks, i.v., day 16); 1602.61 ± 481.85 mm^3 in data set [1] (50 mg/kg, BIW × 4 weeks, i.v., day 20); 1148.22 ± 381.49 mm^3 in data set [1] (50 mg/kg, BIW × 4 weeks, i.v., day 23); 1454.47 ± 479.27 mm^3 in data set [1] (50 mg/kg, BIW × 4 weeks, i.v., day 27). Further, the “T/C (%)” value stood at 48.7% in data set [1] (setting [6]) and 45.7% in data set [1] (setting [7]). The “TGI (%)” value in data set [1] (20 mg/kg, BIW × 4 weeks, i.v., day 13, listed as GamaMabs's Ab) is 51.3%; in data set [1] (50 mg/kg, BIW × 4 weeks, i.v., day 13, listed as GamaMabs's Ab) it was 54.3%. For the same molecule, the “anti-tumor activity against HCC xenograft (in words)” value was “of the same order of magnitude as sorafenib” in data set [1] and “close to that induced by sorafenib” in data set [1] (listed as GamaMabs's Ab). Moreover, the “body weight change at study termination” value in data set [2] (20 mg/kg, BIW × 4 weeks, i.v.) is given as 2.68%; in data set [2] (50 mg/kg, BIW × 4 weeks, i.v.), -0.38%. The entries for the “tolerability / toxic events (in words)” value in data set [2], in data set [2] (listed as GM102) and in data set [2] (listed as GamaMabs's Ab) were “no detectable toxic event”, “not accompanied by any toxic event” and “No animal death or significant body weight loss; also recorded: well tolerated”, respectively. Moreover, in data set [4], the “in vivo anti-tumor effect against AMHRII-expressing human colorectal tumor (in words, FIG. 10)” value is recorded as “efficient in vivo anti-tumor effect; also recorded: indistinguishable from the anti-tumor effect of the mainly used anti-colon cancer molecule Irinotecan”.

The term Kd denotes the equilibrium constant for the complex coming apart. A higher Kd goes with a looser complex.
